Substrate: Nc1ccccc1C(=O)C[C@H](N)C(=O)O
Settings: Pseudomonas fluorescens
Description: Compound was evaluated for its binding affinity against kynureninase isolated from Pseudomonas fluorescence

B1: Kynureninase (Homo sapiens), Q16719 (protein)
chain: MEPSSLELPADTVQRIAAELKCHPTDERVALHLDEEDKLRHFRECFYIPKIQDLPPVDLSLVNKDENAIYFLGNSLGLQPKMVKTYLEEELDKWAKIAAYGHEVGKRPWITGDESIVGLMKDIVGANEKEIALMNALTVNLHLLMLSFFKPTPKRYKILLEAKAFPSDHYAIESQLQLHGLNIEESMRMIKPREGEETLRIEDILEVIEKEGDSIAVILFSGVHFYTGQHFNIPAITKAGQAKGCYVGFDLAHAVGNVELYLHDWGVDFACWCSYKYLNAGAGGIAGAFIHEKHAHTIKPALVGWFGHELSTRFKMDNKLQLIPGVCGFRISNPPILLVCSLHASLEIFKQATMKALRKKSVLLTGYLEYLIKHNYGKDKAATKKPVVNIITPSHVEERGCQLTITFSVPNKDVFQELEKRGVVCDKRNPNGIRVAPVPLYNSFHDVYKFTNLLTSILDSAETKN
B1 was tested, and the Km was 25.6 µM.

Source: ChEMBL document CHEMBL1129705, “Synthesis of phosphinic acid transition state analogues for the reaction catalysed by kynureninase” (Bioorg Med Chem Lett, 1996)
